One substance from paper PMC10580588 can be followed below.

The target in the test is FLAG-tagged full-length senataxin (SETX) (human) (UniProt Q7Z333). Kind of test: co-IP; SETX immunoprecipitated, the IP'd material treated with or without RNase A; bands measured by densitometry; IgG only IP as negative control.
UniProt Q7Z333, sequence (Q7Z333 whole entry): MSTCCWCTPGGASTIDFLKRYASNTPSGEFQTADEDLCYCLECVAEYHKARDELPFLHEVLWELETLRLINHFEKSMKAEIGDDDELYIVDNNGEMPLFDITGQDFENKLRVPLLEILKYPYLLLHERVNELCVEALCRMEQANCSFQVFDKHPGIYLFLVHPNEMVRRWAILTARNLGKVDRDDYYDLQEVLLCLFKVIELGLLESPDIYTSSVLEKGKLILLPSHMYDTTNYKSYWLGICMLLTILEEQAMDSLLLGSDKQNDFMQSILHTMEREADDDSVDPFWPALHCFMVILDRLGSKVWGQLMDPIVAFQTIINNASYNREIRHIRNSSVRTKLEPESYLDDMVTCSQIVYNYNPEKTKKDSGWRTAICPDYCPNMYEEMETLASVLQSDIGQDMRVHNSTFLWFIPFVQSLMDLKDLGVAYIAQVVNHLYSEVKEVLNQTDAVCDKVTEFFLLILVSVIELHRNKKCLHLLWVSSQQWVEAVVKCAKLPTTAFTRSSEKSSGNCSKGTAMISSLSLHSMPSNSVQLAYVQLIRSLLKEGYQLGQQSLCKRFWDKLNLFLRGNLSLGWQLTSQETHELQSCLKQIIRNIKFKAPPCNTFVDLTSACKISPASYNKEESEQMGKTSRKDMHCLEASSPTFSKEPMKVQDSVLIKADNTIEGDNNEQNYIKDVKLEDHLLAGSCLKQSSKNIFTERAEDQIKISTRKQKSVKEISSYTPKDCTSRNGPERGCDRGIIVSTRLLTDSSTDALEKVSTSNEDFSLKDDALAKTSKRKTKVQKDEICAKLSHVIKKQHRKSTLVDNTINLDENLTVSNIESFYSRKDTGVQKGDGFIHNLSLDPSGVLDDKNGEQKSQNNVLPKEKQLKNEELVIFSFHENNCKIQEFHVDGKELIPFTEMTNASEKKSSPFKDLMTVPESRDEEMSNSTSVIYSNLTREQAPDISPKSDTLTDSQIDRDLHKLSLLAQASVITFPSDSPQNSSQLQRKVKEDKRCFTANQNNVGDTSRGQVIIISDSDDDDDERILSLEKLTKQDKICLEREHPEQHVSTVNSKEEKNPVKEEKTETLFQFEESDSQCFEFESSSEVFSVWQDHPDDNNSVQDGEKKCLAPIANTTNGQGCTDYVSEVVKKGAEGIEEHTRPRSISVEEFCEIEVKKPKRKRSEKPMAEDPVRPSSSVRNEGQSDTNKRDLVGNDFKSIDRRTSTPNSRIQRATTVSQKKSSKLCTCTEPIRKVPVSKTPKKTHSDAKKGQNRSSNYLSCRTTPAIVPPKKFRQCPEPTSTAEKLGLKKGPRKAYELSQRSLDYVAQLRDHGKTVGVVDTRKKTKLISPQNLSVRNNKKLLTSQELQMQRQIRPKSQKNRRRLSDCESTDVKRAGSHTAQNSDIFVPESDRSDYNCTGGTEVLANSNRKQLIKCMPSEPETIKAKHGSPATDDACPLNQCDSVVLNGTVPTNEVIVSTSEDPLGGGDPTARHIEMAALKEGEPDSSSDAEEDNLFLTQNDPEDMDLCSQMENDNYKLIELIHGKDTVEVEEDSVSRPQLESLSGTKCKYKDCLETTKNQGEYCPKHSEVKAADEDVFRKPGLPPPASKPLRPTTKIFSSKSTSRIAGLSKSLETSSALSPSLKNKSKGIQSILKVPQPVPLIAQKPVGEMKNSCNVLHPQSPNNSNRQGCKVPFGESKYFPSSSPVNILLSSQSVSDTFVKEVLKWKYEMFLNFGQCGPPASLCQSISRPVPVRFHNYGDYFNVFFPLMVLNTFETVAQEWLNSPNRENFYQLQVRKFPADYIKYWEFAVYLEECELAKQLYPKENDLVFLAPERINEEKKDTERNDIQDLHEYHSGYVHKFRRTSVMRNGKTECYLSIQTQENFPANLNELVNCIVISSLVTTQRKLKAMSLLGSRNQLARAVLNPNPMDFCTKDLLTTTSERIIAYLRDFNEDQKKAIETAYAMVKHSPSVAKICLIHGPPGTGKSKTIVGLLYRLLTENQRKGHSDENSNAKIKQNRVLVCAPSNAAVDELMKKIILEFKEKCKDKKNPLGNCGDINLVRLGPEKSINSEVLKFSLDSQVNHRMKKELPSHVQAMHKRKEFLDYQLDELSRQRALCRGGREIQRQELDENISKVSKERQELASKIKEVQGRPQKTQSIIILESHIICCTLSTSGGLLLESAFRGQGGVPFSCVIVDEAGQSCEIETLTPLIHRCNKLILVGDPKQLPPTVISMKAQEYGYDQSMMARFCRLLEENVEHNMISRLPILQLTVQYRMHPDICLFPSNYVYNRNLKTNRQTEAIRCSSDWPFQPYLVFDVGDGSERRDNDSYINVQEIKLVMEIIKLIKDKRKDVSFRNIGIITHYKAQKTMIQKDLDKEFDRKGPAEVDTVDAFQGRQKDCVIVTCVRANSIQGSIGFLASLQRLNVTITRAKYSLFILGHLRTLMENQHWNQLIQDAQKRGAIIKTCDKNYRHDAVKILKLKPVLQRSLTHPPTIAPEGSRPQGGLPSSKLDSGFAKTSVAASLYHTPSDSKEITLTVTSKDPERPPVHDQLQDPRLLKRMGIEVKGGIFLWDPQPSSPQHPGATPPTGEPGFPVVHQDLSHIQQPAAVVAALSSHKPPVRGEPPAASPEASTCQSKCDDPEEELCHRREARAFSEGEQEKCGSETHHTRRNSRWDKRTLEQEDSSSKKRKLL

For GFP-GR30 (peptide), the percent reduction of the co-IP band upon RNase A treatment came out at 32%.
